Results taken from patent publication US20260183408A1, “POLYPEPTIDE AND USE THEREOF” (SHENZHEN CHENYANG BIOLOGICAL TECHNOLOGY CO., LTD, priority 2022, published 2026).
Ends that are not written are not given here.

B1: IL3 region of D2R: GST fusion protein containing the third intracellular loop (IL3) region of D2R, K211-Q373 (protein)
chain: KIYIVLRRRRKRVNTKRSSRAFRAHLRAPLKGNCTHPEDMKLCTVIMKSNGSFPVNRRRVEAARRAQELEMEMLSSTSPPERTRYSPIPPSHHQLTLPDPSHHGLHSTPDSPAKPEKNGHAKDHPKIAKIFEIQTMPNGKTRTSLKTMSRRKLSQQKEKKATQ
modifications: left off: a dimerising Fc or GST; large carriers; small tags and cut ends
notes: GST fusion protein containing the third intracellular loop (IL3) region of D2R, K211-Q373

These molecules were tested against T1, 5-HT2CR (Mus musculus, UniProt P34968) (assay: GST pulldown assay for mouse hippocampal tissue with D2R fragments). Settings: GST fusion protein of the D2R region, mouse hippocampal tissue extract, Western blotting (FIG. 4).
T1 construct: The dissolved mouse hippocampal tissue extract (with 500 μg protein); from tissue; host or cells: mouse hippocampus
T1 sequence (P34968 33-459): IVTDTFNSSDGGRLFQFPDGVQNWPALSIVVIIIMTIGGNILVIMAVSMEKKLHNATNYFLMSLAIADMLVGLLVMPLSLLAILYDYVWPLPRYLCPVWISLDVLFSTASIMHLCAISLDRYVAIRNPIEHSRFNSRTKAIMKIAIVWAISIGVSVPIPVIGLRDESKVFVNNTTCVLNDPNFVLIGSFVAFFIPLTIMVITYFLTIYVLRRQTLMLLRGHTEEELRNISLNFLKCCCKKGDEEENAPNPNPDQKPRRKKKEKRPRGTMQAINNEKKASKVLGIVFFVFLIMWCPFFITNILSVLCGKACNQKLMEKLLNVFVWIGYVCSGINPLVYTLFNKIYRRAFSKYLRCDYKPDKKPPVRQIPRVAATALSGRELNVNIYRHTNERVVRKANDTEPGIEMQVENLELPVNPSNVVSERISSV
Type: binding
Description: In order to identify the binding site of the D2R/5-HT2CR complex, full-length D2R cDNA clone (Genbank Accession No. X51645) was first amplified to obtain the cDNA fragments of the CT region of D2R (D2R-CT, T428-C443) and the third intracellular loop (IL3) region of D2R (D2R-IL3, K211-Q373). These fragments were subcloned into the BamH1/EcoR1 or BamH1/Xho1 site of pGEX-4T-3 plasmids (YouBio no: VT1255). The initiation methionine residue and the termination codon were incorporated when appropriate. All constructs were resequenced to confirm that the splicing fusion was properly achieved. E. coli BL21 viable cells (KangTi Life Technology, no: KTSM104L) were used for expression, and purification was performed to obtain the GST fusion protein containing the IL3 region of D2R (GST-D2R-IL3) and the GST fusion protein containing the CT region of D2R (GST-D2R-CT) from the bacterial lysates.
The dissolved mouse hippocampal tissue extract (with 500 μg protein) was diluted with 1×PBS/1% Triton X-100 and subsequently incubated with 20 μl of protein-GST-resin saturated with only GST protein or 15 μg of the GST fusion protein described above overnight at 4° C. Beads were washed with 1×PBS/1% Triton X-100 for 1-8 times. The bound proteins were eluted with SDS-PAGE Protein Loading Buffer (YeSen, no: 20315ES05), separated with SDS-PAGE, and subjected to Western blotting with their respective antibodies. Results were as shown in panel A of FIG. 4.
According to the method in this Example, pulldown analysis was performed using the GST fusion protein containing the KVC region of D2R (GST-D2R-KVC), the GST fusion protein containing the ES region of D2R (GST-D2R-ES), and the GST fusion protein containing the PQ region of D2R (GST-D2R-PQ), and the Western blotting results were shown in panel B of FIG. 4. […]

| Molecule | pull down of 5-HT2CR |
| --- | --- |
| KL polypeptide: K226-L240 region of D2R, SEQ ID NO: 1; tested in the pulldown as GST fusion protein GST-D2R-KL (KRSSRAFRAHLRAPL) | could associate with 5-HT2CR |
| KVC region of D2R: GST fusion protein containing the KVC (K211-V270) region of D2R (KIYIVLRRRRKRVNTKRSSRAFRAHLRAPLKGNCTHPEDMKLCTVIMKSNGSFPVNRRRV; cysteine pairing not given here; also: GST fusion protein) | could pull down the 5-HT2CR |
| B1 | could pull down the 5-HT2CR |
